Assays:
[1] = system: Myc-tagged N-term fragment of Xaxin (amino acid residues 63-288)
[2] = system: T1, Myc-tagged deltaRGS construct of Xaxin (amino acid residues 1-80 fused to residues 290-842)
T1 sequence: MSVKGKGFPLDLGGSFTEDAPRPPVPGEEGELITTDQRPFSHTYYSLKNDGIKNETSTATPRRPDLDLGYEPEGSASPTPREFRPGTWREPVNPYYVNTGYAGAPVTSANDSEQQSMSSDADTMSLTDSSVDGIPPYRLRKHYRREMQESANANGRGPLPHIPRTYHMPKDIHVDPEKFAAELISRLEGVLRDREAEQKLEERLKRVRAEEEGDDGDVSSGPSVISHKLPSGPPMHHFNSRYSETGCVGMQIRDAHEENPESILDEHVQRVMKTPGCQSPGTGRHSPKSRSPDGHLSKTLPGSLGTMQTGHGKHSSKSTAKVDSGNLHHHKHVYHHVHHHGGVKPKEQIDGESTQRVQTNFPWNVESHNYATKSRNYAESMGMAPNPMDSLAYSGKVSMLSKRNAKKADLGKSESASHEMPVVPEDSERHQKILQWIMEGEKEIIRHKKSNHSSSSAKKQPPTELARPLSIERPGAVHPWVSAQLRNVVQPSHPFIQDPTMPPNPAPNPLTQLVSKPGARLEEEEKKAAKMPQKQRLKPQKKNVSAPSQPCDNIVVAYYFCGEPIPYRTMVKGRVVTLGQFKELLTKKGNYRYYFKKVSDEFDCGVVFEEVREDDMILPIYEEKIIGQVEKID

[3] = system: Myc-tagged deltaGID construct of Xaxin (amino acid residues 1-324 fused to residues 504-842)
[4] = system: T2, Myc-tagged GID-1 fragment of Xaxin (amino acid residues 277-545)
T2 sequence: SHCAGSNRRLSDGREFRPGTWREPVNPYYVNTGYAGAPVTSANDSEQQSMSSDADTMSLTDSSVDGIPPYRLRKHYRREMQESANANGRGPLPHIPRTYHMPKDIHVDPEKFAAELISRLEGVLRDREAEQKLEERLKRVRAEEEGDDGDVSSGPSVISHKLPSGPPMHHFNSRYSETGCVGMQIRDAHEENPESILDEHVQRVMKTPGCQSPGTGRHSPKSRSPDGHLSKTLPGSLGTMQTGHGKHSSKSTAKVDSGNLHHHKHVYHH

[5] = system: Myc-tagged deltaDIX construct of Xaxin (amino acid residues 1-778)
[6] = system: Myc-tagged full length Xenopus axin (FL Xaxin, amino acid residues 1-842)
[7] = system: T3, Myc-tagged C-term fragment of Xaxin (amino acid residues 429-713)
T3 sequence: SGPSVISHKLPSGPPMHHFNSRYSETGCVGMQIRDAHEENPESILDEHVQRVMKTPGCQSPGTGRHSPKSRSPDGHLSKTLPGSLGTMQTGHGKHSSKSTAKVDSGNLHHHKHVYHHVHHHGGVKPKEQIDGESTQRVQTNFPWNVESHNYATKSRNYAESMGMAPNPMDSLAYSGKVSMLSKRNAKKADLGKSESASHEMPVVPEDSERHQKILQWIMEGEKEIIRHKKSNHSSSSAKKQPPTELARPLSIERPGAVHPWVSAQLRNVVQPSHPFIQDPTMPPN

Chain of Myc-tagged N-term fragment of Xaxin (amino acid residues 63-288) (chain, as listed by the source): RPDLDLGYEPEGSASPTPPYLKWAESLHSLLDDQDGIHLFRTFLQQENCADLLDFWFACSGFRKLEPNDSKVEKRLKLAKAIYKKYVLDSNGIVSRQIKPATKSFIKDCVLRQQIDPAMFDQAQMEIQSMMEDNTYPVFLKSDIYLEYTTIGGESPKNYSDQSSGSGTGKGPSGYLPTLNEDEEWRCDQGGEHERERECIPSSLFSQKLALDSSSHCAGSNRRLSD

## GSK-3 beta (glycogen synthase kinase-3 beta) expressed in Xenopus oocytes
[1]
  GSK-3 beta-mediated tau phosphorylation in Xenopus oocytes (PHF-1 immunoblot): had no effect on GSK-3 beta activity
[2]
  tau protein phosphorylation mediated by GSK-3 beta in Xenopus oocytes: inhibited tau protein phosphorylation mediated by GSK-3 beta in a dose-dependent manner
[3]
  GSK-3 beta activity in the tau-phosphorylation assay in Xenopus oocytes: had no discernible effect on GSK-3 beta activity in the tau-phosphorylation assay
[4]
  GSK-3 beta mediated tau phosphorylation in Xenopus oocytes: bound GSK-3 beta and inhibited GSK-3 beta mediated tau phosphorylation
  GSK-3 beta-mediated tau phosphorylation in Xenopus oocytes (PHF-1 immunoblot): virtually complete inhibition of GSK-3 beta-mediated tau phosphorylation
[5]
  GSK-3 beta activity (tau phosphorylation assay in Xenopus oocytes): partially inhibited GSK-3 beta activity
[6]
  GSK-3 beta-mediated tau phosphorylation in Xenopus oocytes (PHF-1 immunoblot): had no discernible effect on tau phosphorylation
[7]
  GSK-3 beta-mediated tau phosphorylation in Xenopus oocytes (PHF-1 immunoblot): had no effect on GSK-3 beta activity

Source: patent US20010052137
